Columns and labels:
[1] = tested on: Aβ from H1299 cell-conditioned media; experiment: ELISA, HN (endogenous and exogenously added) and AChE bound to Aβ from H1299 media on 82E1 antibody; assay type: binding, human; conditions: H1299 cell-conditioned media, 82E1; Fig. 6
Protocol: Human NSCLC cell lines, A549 (ATCC CCL‐185) and H1299 (ATCC CRL‐5803), were purchased from the American Type Culture Collection (ATCC, Manassas, VA, USA). Cells were seeded as we reported earlier in 5 mL HyClone Dulbecco's modified Eagle's medium/nutrient mixture F‐12 (DMEM/F12) (GE Healthcare Life Sciences, Pittsburgh, PA, USA), supplemented with 10% Fetalgro bovine growth serum (FBS; RMBIO, Missoula, MT, USA), 50 U·mL^−1 penicillin, and […] streptomycin (Invitrogen, Life Technologies, Carlsbad, CA, USA) in 25‐cm^2 tissue culture flasks, and allowed to grow overnight in an incubator at 37 °C, 95% humidity, and 5% CO2. The cells were counted after trypan blue staining, with a hemocytometer.
ELISAs were carried out as we previously reported. […] TBST was then used to wash the wells 4× before proceeding in one of two ways: (a) biotinylated samples were analyzed by adding 100 µL streptavidin–HRP conjugate in TBST (1 : 2500 dilution) to the samples followed by incubation for 3 h at RT on a shaker, or (b) samples without biotin were analyzed by adding 100 µL TBST containing the primary antibody as per the manufacturer's recommendation, incubating for 3 h at RT on a shaker, followed by washing the wells 4× with TBST. […] The reaction was stopped with 100 µL 2 M H2SO4 after incubating at RT for 0.5–15 min, resulting in a yellow color change, measured by absorbance at 450 nm. […]

Aβ cytotoxicity = conditions: versus Aβ aggregates alone; cited from earlier work
Excerpt: Almost all types of cells produce amyloid beta (Aβ), a peptide well recognized for its role in the development and progression of different stages of Alzheimer's disease (AD). The Aβ peptide is ~ 4 kDa and derived from the sequential processing of the higher molecular weight amyloid precursor protein by two membrane‐bound endoproteases, β‐ and γ‐secretase. Different C‐terminal Aβ heterogeneity results from processing by γ‐secretase, where Aβ40 represents the most abundant isoform (~ 90%) as compared to Aβ42 (~ 10%). Self‐assembled Aβ40/42 peptides into amyloid fib ... || Soluble oligomers of proteins implicated in different diseases are primarily thought to be the main toxic form as opposed to the larger fibrillar assemblies. Aβ regions containing Tyr and Ser (H6DSGY10 and G25SNKG29) (Fig. 1) along with post‐translational modifications of these regions, have been implicated in misfolding, oligomerization, or fibril formation of Aβ [5, 10, 11, 16, 41]. […] Aβ proteins a ... || Acetylcholinesterase (AChE) is an enzyme known for its role in terminating acetylcholine‐mediated neurotransmission at the synaptic cleft. The majority of the cortical AChE in the Alzheimer's brain is mainly associated with the amyloid core of senile plaques. […]

B1: acetylcholinesterase (protein)
chain: EGREDAELLVTVRGGRLRGIRLKTPGGPVSAFLGIPFAEPPMGPRRFLPPEPKQPWSGVVDATTFQSVCYQYVDTLYPGFEGTEMWNPNRELSEDCLYLNVWTPYPRPTSPTPVLVWIYGGGFYSGASSLDVYDGRFLVQAERTVLVSMNYRVGAFGFLALPGSREAPGNVGLLDQRLALQWVQENVAAFGGDPTSVTLFGESAGAASVGMHLLSPPSRGLFHRAVLQSGAPNGPWATVGMGEARRRATQLAHLVGCPPGGTGGNDTELVACLRTRPAQVLVNHEWHVLPQESVFRFSFVPVVDGDFLSDTPEALINAGDFHGLQVLVGVVKDEGSYFLVYGAPGFSKDNESLISRAEFLAGVRVGVPQVSDLAAEAVVLHYTDWLHPEDPARLREALSDVVGDHNVVCPVAQLAGRLAAQGARVYAYVFEHRASTLSWPLWMGVPHGYEIEFIFGIPLDPSRNYTAEEKIFAQRLMRYWANFARTGDPNEPRDPKAPQWPPYTAGAQQYVSLDLRPLEVRRGLRAQACAFWNRFLPKLLSATDTLDEAERQWKAEFHRWSSYMVHWKNQFDHYSKQDRCSDL
Question: With B1 as the molecule, how does the “AChE bound to Aβ” value [1] read?
Answer: barely detectable levels

Question: And the “toxicity of AChE-amyloid complexes” value (Aβ cytotoxicity)?
Answer: Higher toxicity

Source: publication PMC7714071, “Interaction of amyloid beta with humanin and acetylcholinesterase is modulated by ATP” (FEBS Open Bio, 2020)
